In the supplement of paper PMC9170038:

Test system: MS2 coat protein
Assay: apparent KD of MS2 coat protein; designed switch direction (-1 OFF switch, 1 ON switch): 1; higher = weaker reporter binding
Method in brief: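 On Illumina chips, designed RNA switches with common flanks were made by stalled E. coli RNA polymerase. Titrations with SNAP-549-labelled MS2 coat protein, doubling from 0.7 or 1.5 nM to 3 µM, were done with no input, with 200 uM small-molecule ligand, or with an oligonucleotide input. Apparent KD is the median per design over clusters, from curve fits of normalised cluster fluorescence.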

[1] = Eterna round: R95, input ligand: FMN 200 uM
[2] = Eterna round: R95, input ligand: microRNA oligo, concentration not stated
[3] = Eterna round: R95, input ligand: none
[4] = input ligand: microRNA oligo, concentration not stated

“UAGUACAAGCUUUUUGCUUGUCUUAUUUAACAUGAGGAUCACCCAUGUAAGUUGAAAGUUAGAGAGUGGAGGUUGAA [JR_SHM208A_Sub050] (puzzle: Sensor for hsa-mir-208a)” was tested, and the “apparent KD of MS2 coat protein” value [1] was 20 nM, the “apparent KD of MS2 coat protein” value [2] was 20.4 nM and the “apparent KD of MS2 coat protein” value [3] was 18.8 nM.
With “CUGCUCGUGUGAGGAUAUGCCGCCGUUUCGGCUGCAGAAGGUGCUACGUUACAUGAGGAUCACCCAUGUCUCUGUUGUUUCGUC [salish99_SSNG1_r04_946] (Eterna round: R96, puzzle: Same State NG 1)” the “apparent KD of MS2 coat protein” value (input ligand: FMN 200 uM) was 25.6 nM, the “apparent KD of MS2 coat protein” value [4] was 18.7 nM and the “apparent KD of MS2 coat protein” value (input ligand: none) was 31.3 nM.
In the case of “GCUCGCACGAUGACCCACAUGAGGAUCACCCAUGUGUGUGGGUAGGAUAUCUAGAUUAAGGAUGUAGAGAAGGGCCGAGCGAGC [SameState NG3 #23] (Eterna round: R96, puzzle: Same State NG 3)”, the “apparent KD of MS2 coat protein” value (input ligand: FMN 200 uM) is reported as 576 nM, the “apparent KD of MS2 coat protein” value [4] is reported as 429 nM and the “apparent KD of MS2 coat protein” value (input ligand: none) is reported as 600 nM.
For “UGUACCUUCAUAGGAUAUCAUGCGAAAAUUGCGUGAGAAGGGUGAAUACUGUCUUUCUAAGAGUACAUGAGGAUCACCCAUGUA [SameState NG1 #62] (Eterna round: R96, puzzle: Same State NG 1)”, the “apparent KD of MS2 coat protein” value (input ligand: FMN 200 uM) was 181 nM, the “apparent KD of MS2 coat protein” value [4] was 133 nM and the “apparent KD of MS2 coat protein” value (input ligand: none) was 152 nM.
With “GUUACAUGAGGAUCACCCAUGUAUGUGUGGGAGUAAGUGUCUUAGGAUAUCUAUCAUUUAAUAUAAGAGAAGGAAGAUUGUUGU [JMF's solution 96] (Eterna round: R96, puzzle: Same State NG 3)” the “apparent KD of MS2 coat protein” value [4] was 87.3 nM.
With “GGAGCCGGCCUAGGAUAUUUCAUAAAAAAACAUGAGGAUCACCCAUGUAGGCCAGAAGGCCUUGGGAAGAAGGAGGUCGGCUCC [Loop Effect - Control] (Eterna round: R96, puzzle: Same State NG 2)” the “apparent KD of MS2 coat protein” value (input ligand: FMN 200 uM) was 8.94 nM, the “apparent KD of MS2 coat protein” value [4] was 11.9 nM and the “apparent KD of MS2 coat protein” value (input ligand: none) was 21.3 nM.
For “AACCCAAUGGAAGGAUAUGGCACCUUAUUGGUGCCAGAAGGUCCUAACAUGAGGAUCACCCAUGUGGGCCGGUCGAAAGACCGG [Fiskers NG1ss - 6] (Eterna round: R96, puzzle: Same State NG 1)”, the “apparent KD of MS2 coat protein” value (input ligand: FMN 200 uM) was 106 nM, the “apparent KD of MS2 coat protein” value [4] was 306 nM and the “apparent KD of MS2 coat protein” value (input ligand: none) was 656 nM.
In the case of “UGGCCAGCCUGUGCUGGGCUUUUGCAUGUACAUGAGGAUCACCCAUGUCGUGUUCAUGCUUUUUGCUCGUCUUUAAA [Photon Torp-03] (puzzle: Sensor for hsa-mir-208a)”, the “apparent KD of MS2 coat protein” value [1] is reported as 49.5 nM, the “apparent KD of MS2 coat protein” value [2] is reported as 16.3 nM and the “apparent KD of MS2 coat protein” value [3] is reported as 55.8 nM.
With “AUAAAACAUGAGGAUCACCCAUGUAAAAAUAUGGGAGGAUAUGCGAAAUAAAAUAAAUAAGCAGAAGGCCUAAAAA [SS! MT 19] (Eterna round: R96, puzzle: Same State 1)” the “apparent KD of MS2 coat protein” value (input ligand: FMN 200 uM) was 21.1 nM, the “apparent KD of MS2 coat protein” value [4] was 52.8 nM and the “apparent KD of MS2 coat protein” value (input ligand: none) was 62.7 nM.
“GUGGUCAGACAUGAGGAUCACCCAUGUGGAAUAAAUAACGUCAAGGAUAUACAAUAUAGGAUAUAGUAGAAGGUGAGAUUGGUG (Eterna round: R96, puzzle: Same State NG 3)” was tested, and the “apparent KD of MS2 coat protein” value [4] was 94.8 nM.
With “AUGUUUAAUGCAGGAUAUGAUUAACAUGAGGAUCACCCAUGUGGUGUUGUGAGUAAGGAGAGUGAUCAGAAGGGCAUUUUUUUU [JMF's solution 101] (Eterna round: R96, puzzle: Same State NG 2)” the “apparent KD of MS2 coat protein” value [4] was 516 nM.
In the case of “UGGUCUCACUUAGGAUAUUAGCACCGAAAGAGCUAAGAAGGAGGUGAAACUCUCACAUGAGGAUCACCCAUGUACACCCUAGGG [Eternabot solution 3] (Eterna round: R96, puzzle: Same State NG 1)”, the “apparent KD of MS2 coat protein” value (input ligand: FMN 200 uM) is reported as 162 nM, the “apparent KD of MS2 coat protein” value [4] is reported as 503 nM and the “apparent KD of MS2 coat protein” value (input ligand: none) is reported as 1080 nM.
With “UUGGUACAUGAGGAUCACCCAUGUGGGUCGGUCGCAGGAUAUGCCCGUGGGCGCUUGCGGGCAGAAGGGUGCCGUA [Same State1-X] (Eterna round: R96, puzzle: Same State 1)” the “apparent KD of MS2 coat protein” value (input ligand: FMN 200 uM) was 173 nM, the “apparent KD of MS2 coat protein” value [4] was 386 nM and the “apparent KD of MS2 coat protein” value (input ligand: none) was 1000 nM.
In the case of “ACCCGAAGUAUAUGGGAACAAGCUUUUUAACAUGAGGAUCACCCAUGUACUCGUCUUAUAAGCAGUCGAAAGACUGC [Sensor 100 - 5] (puzzle: Sensor for hsa-mir-208a)”, the “apparent KD of MS2 coat protein” value [1] is reported as 21.7 nM, the “apparent KD of MS2 coat protein” value [2] is reported as 17.3 nM and the “apparent KD of MS2 coat protein” value [3] is reported as 44.5 nM.
For “UGGCUCAGAGCAGGAUAUAUGUAAUAACAUGAGGAUCACCCAUGUGUCGAGCUUCGGCUCGACACAUAGAAGGGCUCUGAGCCA [SSNG2/2-B2] (Eterna round: R96, puzzle: Same State NG 2)”, the “apparent KD of MS2 coat protein” value (input ligand: FMN 200 uM) was 13.3 nM, the “apparent KD of MS2 coat protein” value [4] was 29.2 nM and the “apparent KD of MS2 coat protein” value (input ligand: none) was 40.9 nM.
With “GAGAGACAUGAGGAUCACCCAUGUAGAAUAGAACAAGGAUAUGUGGAAGGCGGAGGAGAGACAGAAGGUGUAGGAG [JR_SS1_Sub055] (puzzle: Same State 1)” the “apparent KD of MS2 coat protein” value [2] was 64 nM.
In the case of “GGUCCAGCCUGAGCUGGACAAAAGUAUGUACAUGAGGAUCACCCAUGUCAUGUACAAGCUUUUUGCUCGUCUUAAAA [JL mod - D87 - 9] (puzzle: Sensor for hsa-mir-208a)”, the “apparent KD of MS2 coat protein” value [1] is reported as 430 nM, the “apparent KD of MS2 coat protein” value [2] is reported as 22.4 nM and the “apparent KD of MS2 coat protein” value [3] is reported as 486 nM.
For “GGUCCAUCAUGAGGAUAUGGCACCUUAUUGGUGCCAGAAGGCAUGUCUAUGACAUGAGGAUCACCCAUGUAAAUAAAUUGGACC [Eli NG1ss - 94] (Eterna round: R96, puzzle: Same State NG 1)”, the “apparent KD of MS2 coat protein” value (input ligand: FMN 200 uM) was 32.3 nM, the “apparent KD of MS2 coat protein” value [4] was 243 nM and the “apparent KD of MS2 coat protein” value (input ligand: none) was 232 nM.
With “GGAGCCGGCACUGAGGAUAUUCAUAAUAAAACAUGAGGAUCACCCAUGUAGGCCAGAAGGCCUUGGGAGAAGGCAGGUCGGCUCG [Mat - Same State 2 - Mod of UCT - D65] (puzzle: Same State 2)” the “apparent KD of MS2 coat protein” value [1] was 16.7 nM, the “apparent KD of MS2 coat protein” value [2] was 138 nM and the “apparent KD of MS2 coat protein” value [3] was 185 nM.
“GAGGAUGAUUUACAGGAUAUAUAGGAGAUGACAUGAGGAUCACCCAUGUAGGAGAUAGGAGUGAGAUAGAAGGGUAAGUGAUGUG [JR_SS2_Sub43] (puzzle: Same State 2)” was tested, and the “apparent KD of MS2 coat protein” value [1] was 58.9 nM, the “apparent KD of MS2 coat protein” value [2] was 122 nM and the “apparent KD of MS2 coat protein” value [3] was 114 nM.
With “AUGCCAAAACGAGGAUAUGGAGCCUUAUUGGCUCCAGAAGGUGUGACAUGAGGAUCACCCAUGUGGCAGUGGUCUAAUGACCAC [Eli NG1ss - 40] (Eterna round: R96, puzzle: Same State NG 1)” the “apparent KD of MS2 coat protein” value (input ligand: FMN 200 uM) was 94.2 nM, the “apparent KD of MS2 coat protein” value [4] was 105 nM and the “apparent KD of MS2 coat protein” value (input ligand: none) was 133 nM.
With “AUUAUACAUGAGGAUCACCCAUGUAAUUAAUCUAGUAAGAUCUAGGAUAUCAGCUCGAAUAGAGCUGAGAAGGAGAUCACAUGU [SSNG3/20-D1] (Eterna round: R96, puzzle: Same State NG 3)” the “apparent KD of MS2 coat protein” value [4] was 45.8 nM.
For “AGCAAUCUAUCUCAGGAUAUCAUGUCAAAGACAUGAGGAUCACCCAUGUACCAGGAAACUGGUUAUGAGAAGGGAGAUAGAUUGA [Mat - Same State 2 - Mod - D29] (puzzle: Same State 2)”, the “apparent KD of MS2 coat protein” value [1] was 154 nM, the “apparent KD of MS2 coat protein” value [2] was 52.2 nM and the “apparent KD of MS2 coat protein” value [3] was 177 nM.
For “GCUCGGCUGAUGGCCCACAUGAGGAUCACCCAUGUGAGUGGGCAGGAUAUCUAGAUUAAGGAUGUAGAGAAGGGCCUACCGAGC [SameState NG3 #35] (Eterna round: R96, puzzle: Same State NG 3)”, the “apparent KD of MS2 coat protein” value (input ligand: FMN 200 uM) was 443 nM, the “apparent KD of MS2 coat protein” value [4] was 106 nM and the “apparent KD of MS2 coat protein” value (input ligand: none) was 244 nM.
